In US20030224453A1, “Structural models for cytoplasmic domains of transmembrane receptors” (priority 1998, published 2003):
Values belong to the molecule of their own block, whether it stands above or below them.

What was measured:
talin [1] = target: T1, talin (Homo sapiens, UniProt Q9Y490); test: densitometry of Coomassie-stained gels; purified talin on model protein resin
filamin (ABP-280) [2] = target: T2, filamin (ABP-280) (Homo sapiens, UniProt P21333); test: Binding of resin-bound cytoplasmic domain model proteins to purified filamin; design: Human uterus filamin (ABP-280) was prepared as a 1.5 mg/ml solution; from tissue; host or cells: human uterus; conditions: result in words
Protocol: (§1) Purified recombinant cytoplasmic domain proteins (500 μg) were dissolved in a mixture of 5 ml 20 mM Pipes, 50 mM NaCl, pH 6.8 and 1 ml 0.1 M sodium acetate, pH 3.5 and bound overnight to 80 μl of Ni^2+ saturated His-bind resin (Novagen). […] Resins were washed twice with 20 mM Pipes, 50 mM NaCl, pH 6.8, and stored at 4° C. with 0.1% sodium azide as suspensions with one volume of this buffer. Fifty microliters of such a suspension were added to 4.5 ml of cell lysates which had been diluted tenfold with buffer A containing 0.05% TRITON X-100, 3 mM MgCl2 and protease-inhibitors. After incubation overnight at 4° C., resins were washed five times with this buffer and finally heated in 50 μl of reducing sample buffer for SDS PAGE. Samples were separated on 4-20% SDS polyacrylamide gels (NOVEX) and either stained with Coomassie or transferred to Immobilon P membranes (Amersham Corp., Arlington Hts, Ill.). Membranes were blocked with TBS, 5% nonfat-mild powder and stained with streptavidin-peroxidase (VECTASTAIN) or specific antibodies. Bound peroxidase was detected with an enhanced chemiluminescence kit (Amersham).
Human uterus filamin (ABP-280) was prepared as a 1.5 mg/ml solution in 0.6 M KCl, 0.5 mM ATP, 0.5 mM DTT, 10 mM imidazole, pH 7.5. For binding assays performed as described in Example 5, this solution was diluted 1/12 with buffer A, 0.05% TRITON X-100, 3 mM MgCl2, 2 mg/ml BSA, protease-inhibitors (see Example 5), omitting the 50 mM NaCl (see Example 5), and resins with bound model proteins were added. Washing was performed in this buffer without BSA and with additional 50 mM KCl.
Talin was purified from human platelets in accordance with well known procedures with an additional purification step using chromatography on phosphocellulose and stored at 1 mg/ml in 10 mM NaCl, 50% glycerol. This solution was diluted to either 87 or 17 μg/ml talin with buffer A, 0.05% TRITON X-100, 3 mM MgCl2, 2 mg/ml BSA and protease inhibitors (see Example 5, including 0.1 mM E-64) and processed as indicated in the binding assays with cell lysates. […]
Target sequence in this assay (P21333 whole entry, the tested form may be a part): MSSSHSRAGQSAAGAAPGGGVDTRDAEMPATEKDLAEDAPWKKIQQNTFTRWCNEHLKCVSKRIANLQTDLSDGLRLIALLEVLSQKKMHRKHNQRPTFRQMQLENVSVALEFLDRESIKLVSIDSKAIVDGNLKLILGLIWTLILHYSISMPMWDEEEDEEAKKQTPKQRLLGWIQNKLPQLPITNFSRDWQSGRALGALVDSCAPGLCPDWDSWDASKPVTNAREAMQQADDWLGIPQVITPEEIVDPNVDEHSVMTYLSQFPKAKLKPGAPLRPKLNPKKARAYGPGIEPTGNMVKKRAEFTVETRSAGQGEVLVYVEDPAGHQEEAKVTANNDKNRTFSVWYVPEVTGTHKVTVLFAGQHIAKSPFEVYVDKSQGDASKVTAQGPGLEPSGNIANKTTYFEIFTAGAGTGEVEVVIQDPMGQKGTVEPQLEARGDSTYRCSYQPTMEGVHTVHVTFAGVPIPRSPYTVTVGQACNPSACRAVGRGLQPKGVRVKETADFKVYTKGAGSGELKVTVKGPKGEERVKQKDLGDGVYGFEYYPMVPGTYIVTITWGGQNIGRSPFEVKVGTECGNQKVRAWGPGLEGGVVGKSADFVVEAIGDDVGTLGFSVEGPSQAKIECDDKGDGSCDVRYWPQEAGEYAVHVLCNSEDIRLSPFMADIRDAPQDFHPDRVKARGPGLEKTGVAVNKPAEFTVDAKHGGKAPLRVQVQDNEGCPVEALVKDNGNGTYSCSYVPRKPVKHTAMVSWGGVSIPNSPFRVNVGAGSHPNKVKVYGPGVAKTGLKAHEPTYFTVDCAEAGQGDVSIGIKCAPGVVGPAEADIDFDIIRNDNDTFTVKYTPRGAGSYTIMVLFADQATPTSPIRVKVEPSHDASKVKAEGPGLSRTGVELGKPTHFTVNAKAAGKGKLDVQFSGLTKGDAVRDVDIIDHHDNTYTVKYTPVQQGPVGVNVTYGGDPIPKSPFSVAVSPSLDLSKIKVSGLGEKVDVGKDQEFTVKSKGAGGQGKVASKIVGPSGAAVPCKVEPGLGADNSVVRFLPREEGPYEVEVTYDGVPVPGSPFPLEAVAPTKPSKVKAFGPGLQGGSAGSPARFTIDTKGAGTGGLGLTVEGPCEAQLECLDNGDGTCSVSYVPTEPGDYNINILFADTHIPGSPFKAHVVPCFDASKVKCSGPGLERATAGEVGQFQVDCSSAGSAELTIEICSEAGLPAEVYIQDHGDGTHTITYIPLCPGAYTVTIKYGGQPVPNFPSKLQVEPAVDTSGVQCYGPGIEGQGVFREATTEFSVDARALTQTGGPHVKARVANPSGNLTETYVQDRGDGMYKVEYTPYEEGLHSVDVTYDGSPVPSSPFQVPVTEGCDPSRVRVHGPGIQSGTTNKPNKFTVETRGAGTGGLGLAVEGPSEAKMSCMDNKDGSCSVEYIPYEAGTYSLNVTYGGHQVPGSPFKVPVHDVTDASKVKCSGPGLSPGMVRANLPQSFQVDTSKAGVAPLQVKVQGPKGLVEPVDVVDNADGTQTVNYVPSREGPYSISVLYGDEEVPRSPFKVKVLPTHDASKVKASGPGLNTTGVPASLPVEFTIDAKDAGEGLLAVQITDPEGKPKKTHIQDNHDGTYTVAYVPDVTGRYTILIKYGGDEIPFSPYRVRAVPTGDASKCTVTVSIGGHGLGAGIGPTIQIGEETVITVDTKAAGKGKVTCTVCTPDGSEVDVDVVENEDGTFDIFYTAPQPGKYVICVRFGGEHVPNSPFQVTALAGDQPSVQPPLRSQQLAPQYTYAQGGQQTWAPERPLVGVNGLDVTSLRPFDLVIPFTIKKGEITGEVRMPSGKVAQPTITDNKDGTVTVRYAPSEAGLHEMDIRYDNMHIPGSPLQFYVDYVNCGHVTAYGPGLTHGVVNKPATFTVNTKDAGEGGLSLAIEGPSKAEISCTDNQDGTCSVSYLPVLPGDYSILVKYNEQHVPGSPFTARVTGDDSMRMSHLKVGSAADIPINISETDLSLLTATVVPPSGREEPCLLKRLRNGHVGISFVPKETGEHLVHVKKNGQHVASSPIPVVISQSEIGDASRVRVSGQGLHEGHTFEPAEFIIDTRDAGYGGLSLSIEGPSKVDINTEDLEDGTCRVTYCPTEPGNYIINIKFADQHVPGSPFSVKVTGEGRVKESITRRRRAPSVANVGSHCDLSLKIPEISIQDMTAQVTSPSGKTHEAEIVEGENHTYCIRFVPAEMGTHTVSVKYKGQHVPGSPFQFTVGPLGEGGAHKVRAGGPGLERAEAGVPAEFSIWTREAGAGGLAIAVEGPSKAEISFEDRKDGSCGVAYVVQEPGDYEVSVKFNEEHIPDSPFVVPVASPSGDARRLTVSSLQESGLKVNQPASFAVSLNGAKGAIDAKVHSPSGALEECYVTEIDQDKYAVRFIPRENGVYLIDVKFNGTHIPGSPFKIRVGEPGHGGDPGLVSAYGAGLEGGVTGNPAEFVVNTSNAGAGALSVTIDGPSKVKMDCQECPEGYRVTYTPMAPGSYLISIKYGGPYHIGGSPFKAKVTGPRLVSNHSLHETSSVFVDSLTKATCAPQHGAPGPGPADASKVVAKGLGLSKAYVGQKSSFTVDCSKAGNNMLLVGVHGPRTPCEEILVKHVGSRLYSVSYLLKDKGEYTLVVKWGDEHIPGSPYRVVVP

filamin (ABP-280) [3] = target: T2, filamin (ABP-280); test: densitometry of Coomassie-stained gels; purified filamin on model protein resin
talin [4] = target: T1, talin; test: Binding of resin-bound cytoplasmic domain model proteins to purified talin; design: Talin was purified from human platelets in accordance with well known procedures; from tissue; host or cells: human platelets; conditions: result in words
Protocol: as §1
Talin was purified from human platelets in accordance with well known procedures with an additional purification step using chromatography on phosphocellulose and stored at 1 mg/ml in 10 mM NaCl, 50% glycerol. […]

filamin = test: Affinity chromatography of cell lysates on cytoplasmic domain mimics, filamin (240 kDa) detected; format: binding; conditions: NHS-biotin-labeled human platelet lysates; result in words
Excerpt: To study possible influences of the structural changes induced by the Gly insertions, protein models were produced having the β1A cytoplasmic domain with one, two and three additional Gly residues inserted after the heptad-repeat motif (G2-, G3-, G4-β1A) and compared with the G1-β1A construct. As an additional control, a variant of the G4-β1A peptide was produced with a Tyr to Ala substitution in the membrane-proximal NPXY-motif (G4-β1A-Y788A) (FIG. 1). This mutation interferes with focal adhesion targeting and activation of integrins. The purified proteins were bound via their N=terminal His-Tag to a Ni^2+−resin and used in affinity chromatography experiments with lysates of NHS-biotin-labeled human platelets. Marked changes in the pattern of protein binding were observed as a consequence of the Gly insertions. Polypeptides migrating at 45, 56, 58, 140 and 240 kDa bound only to the mimics with Gly insertions. […] Using monoclonal antibodies, the 240 kDa and 45 kDa proteins were identified as filamin and actin, respectively. […] Talin bound to the G1- and G4-β1A construct but not to the Y788A-G4β1A construct. Thus, the structural changes in the model induced by the insertion of glycines into the coiled-coil motif and the integrin cytoplasmic domain sequence alter interactions of these proteins with cellular components. […]

talin [5] = target: T1, talin; test: Affinity chromatography of cell lysates on cytoplasmic domain mimics, talin detected; format: binding; design: endogenous in cells; host or cells: human platelets (also Jurkat, HT1080, mouse C2C12 myotubes); conditions: NHS-biotin-labeled human platelet lysates; result in words
Excerpt: To study possible influences of the structural changes induced by the Gly insertions, protein models were produced having the β1A cytoplasmic domain with one, two and three additional Gly residues inserted after the heptad-repeat motif (G2-, G3-, G4-β1A) and compared with the G1-β1A construct. As an additional control, a variant of the G4-β1A peptide was produced with a Tyr to Ala substitution in the membrane-proximal NPXY-motif (G4-β1A-Y788A) (FIG. 1). This mutation interferes with focal adhesion targeting and activation of integrins. The purified proteins were bound via their N=terminal His-Tag to a Ni^2+−resin and used in affinity chromatography experiments with lysates of NHS-biotin-labeled human platelets. Marked changes in the pattern of protein binding were observed as a consequence of the Gly insertions. Polypeptides migrating at 45, 56, 58, 140 and 240 kDa bound only to the mimics with Gly insertions. […] Using monoclonal antibodies, the 240 kDa and 45 kDa proteins were identified as filamin and actin, respectively. […] Talin bound to the G1- and G4-β1A construct but not to the Y788A-G4β1A construct. Thus, the structural changes in the model induced by the insertion of glycines into the coiled-coil motif and the integrin cytoplasmic domain sequence alter interactions of these proteins with cellular components. Alterations of the β1A tail that block cytoskeletal interactions, such as the Y788 mutation and β1B- and β1C-splice variants also abrogate binding to talin and filamin. Consequently, the observed in vitro interactions are likely to be biologically relevant.
Human platelets were obtained by centrifugation of freshly drawn blood samples at 1000 rpm for 20 minutes and sedimentation of the resulting platelet-rich plasma at 2600 rpm for 15 minutes. They were washed twice with 0.12 M NaCl, 0.0129 M trisodium citrate, 0.03 M glucose, pH 6.5, and once in Hepes-Saline (3.8 mM Hepes, 137 mM NaCl, 2.7 mM KCl, 5.6 mM D-Glucose, 3.3 mM Na2HPO4, pH 7.3-7.4). […]

T1 sequence (Q9Y490 whole entry, the tested form may be a part): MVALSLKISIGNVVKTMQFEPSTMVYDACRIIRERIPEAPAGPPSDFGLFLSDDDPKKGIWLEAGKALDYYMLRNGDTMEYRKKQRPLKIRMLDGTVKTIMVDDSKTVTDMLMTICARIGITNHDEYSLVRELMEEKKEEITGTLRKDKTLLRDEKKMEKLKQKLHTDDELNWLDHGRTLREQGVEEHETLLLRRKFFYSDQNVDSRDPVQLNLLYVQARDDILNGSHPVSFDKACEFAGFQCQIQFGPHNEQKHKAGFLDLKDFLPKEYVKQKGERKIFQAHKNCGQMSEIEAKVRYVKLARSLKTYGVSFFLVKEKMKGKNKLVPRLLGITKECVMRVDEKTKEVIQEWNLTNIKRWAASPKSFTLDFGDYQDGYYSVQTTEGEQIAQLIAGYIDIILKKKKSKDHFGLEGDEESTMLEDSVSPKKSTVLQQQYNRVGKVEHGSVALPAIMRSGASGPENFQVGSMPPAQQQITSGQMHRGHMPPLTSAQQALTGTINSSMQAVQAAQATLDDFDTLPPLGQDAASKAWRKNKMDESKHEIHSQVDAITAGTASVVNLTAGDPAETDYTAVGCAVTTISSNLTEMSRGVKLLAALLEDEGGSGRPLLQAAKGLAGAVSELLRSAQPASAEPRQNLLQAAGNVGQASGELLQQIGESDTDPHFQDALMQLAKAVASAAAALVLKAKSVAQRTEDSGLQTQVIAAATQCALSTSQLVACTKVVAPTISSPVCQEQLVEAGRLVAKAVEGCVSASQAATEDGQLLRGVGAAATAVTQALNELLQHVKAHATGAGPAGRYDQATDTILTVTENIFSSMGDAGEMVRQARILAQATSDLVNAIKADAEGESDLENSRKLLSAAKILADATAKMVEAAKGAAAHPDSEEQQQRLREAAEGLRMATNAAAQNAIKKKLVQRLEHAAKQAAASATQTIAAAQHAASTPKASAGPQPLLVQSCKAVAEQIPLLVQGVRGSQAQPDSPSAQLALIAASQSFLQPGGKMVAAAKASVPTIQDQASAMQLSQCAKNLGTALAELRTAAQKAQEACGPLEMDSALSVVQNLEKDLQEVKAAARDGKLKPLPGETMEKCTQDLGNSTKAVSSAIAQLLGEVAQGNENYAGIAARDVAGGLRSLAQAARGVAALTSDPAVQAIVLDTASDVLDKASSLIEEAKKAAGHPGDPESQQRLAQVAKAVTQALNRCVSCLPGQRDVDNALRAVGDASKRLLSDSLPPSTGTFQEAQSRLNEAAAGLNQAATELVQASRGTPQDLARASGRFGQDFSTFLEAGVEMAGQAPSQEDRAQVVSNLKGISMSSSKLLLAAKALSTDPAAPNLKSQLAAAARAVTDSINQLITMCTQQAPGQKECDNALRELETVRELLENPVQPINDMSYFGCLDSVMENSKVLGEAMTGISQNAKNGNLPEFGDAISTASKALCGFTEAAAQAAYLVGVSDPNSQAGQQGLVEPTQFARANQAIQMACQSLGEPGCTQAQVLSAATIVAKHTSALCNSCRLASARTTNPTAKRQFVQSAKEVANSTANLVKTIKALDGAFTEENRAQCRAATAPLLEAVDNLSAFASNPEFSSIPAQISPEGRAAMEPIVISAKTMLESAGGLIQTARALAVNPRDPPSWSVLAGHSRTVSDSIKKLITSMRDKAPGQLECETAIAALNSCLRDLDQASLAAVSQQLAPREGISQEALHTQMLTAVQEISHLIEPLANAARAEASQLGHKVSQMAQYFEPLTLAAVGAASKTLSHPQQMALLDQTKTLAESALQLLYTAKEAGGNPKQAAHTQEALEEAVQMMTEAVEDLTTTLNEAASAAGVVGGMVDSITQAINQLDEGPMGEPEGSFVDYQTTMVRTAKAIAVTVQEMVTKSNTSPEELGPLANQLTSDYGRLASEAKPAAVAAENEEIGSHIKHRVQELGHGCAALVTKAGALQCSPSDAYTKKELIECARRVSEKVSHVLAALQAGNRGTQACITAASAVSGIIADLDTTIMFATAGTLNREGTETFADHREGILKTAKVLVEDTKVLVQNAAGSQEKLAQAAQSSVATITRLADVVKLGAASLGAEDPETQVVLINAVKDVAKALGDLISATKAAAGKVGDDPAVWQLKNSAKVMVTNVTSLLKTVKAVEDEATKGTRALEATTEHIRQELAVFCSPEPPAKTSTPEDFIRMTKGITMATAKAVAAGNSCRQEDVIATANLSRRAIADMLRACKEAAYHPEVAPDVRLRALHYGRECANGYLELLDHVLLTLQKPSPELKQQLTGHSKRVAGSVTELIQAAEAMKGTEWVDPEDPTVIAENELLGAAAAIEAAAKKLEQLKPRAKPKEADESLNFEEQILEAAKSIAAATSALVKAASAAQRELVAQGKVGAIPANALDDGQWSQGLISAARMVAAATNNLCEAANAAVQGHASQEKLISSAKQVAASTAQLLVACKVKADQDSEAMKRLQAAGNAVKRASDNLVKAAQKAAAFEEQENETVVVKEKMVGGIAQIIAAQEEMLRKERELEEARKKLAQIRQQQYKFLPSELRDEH

fold more talin bound than by the β1A model protein (talin [1]): 9 fold
B1: β1D construct (G1 or G4 variant not stated) (designed binder, part only; not given: number of added glycines, part only)
chain, part: GSSHHHHHHSSGLVPRGSHMKLEALEGRLDALEGKLEALEGKLDALEGKLLMIIHDRREFAKFEKEKMNAKWDTQENPIYKSPINNFKNPNYGRKAGL

binding of purified filamin, comparison between constructs (filamin (ABP-280) [2]): bound more filamin than G4-β1A or G4-β1D | fold more filamin bound than by the β1A model protein (filamin (ABP-280) [3]): 8.4 fold
B2: β7 construct (G1 or G4 variant not stated) (designed binder, part only; not given: number of added glycines, part only)
chain, part: GSSHHHHHHSSGLVPRGSHMKLEALEGRLDALEGKLEALEGKLDALEGKLSVEIYDRREYSRFEKEQQQLNWKQDSNPLYKSAITTTINPRFQEADSPTL

binding of purified filamin, comparison between constructs (filamin (ABP-280) [2]): functionally reduced | binding of purified talin compared to G4-β1A (talin [4]): functionally reduced | talin binding from cell lysates (talin [5]): not
B3: G4-β1A-Y788A: G4-β1A variant with Tyr to Ala substitution in the membrane-proximal NPXY-motif (protein)
chain: GSSHHHHHHSSGLVPRGSHMKLEALEGRLDALEGKLEALEGKLDALEGGGGKLLMIIHDRREFAKFEKEKMNAKWDTGENPIAKSAVTTVVNPKYEGK
filamin (240 kDa) binding from cell lysates (filamin): suppressed the interaction with the 240 kDa
